Source: US20250304690A1 (HANGZHOU VIROMAB BIOTECH, published 2025)

B1: TT3 Ab-1 (antibody, human IgG1, kappa, V domains shown)
VH: QVQLVQSGAEVKKPGASVKVSCKASGYTFTNYYMKWVKQAPGQRLEWMGDLNPNNGDTFYNQKFKGRVTITVDKSASTAYMELSSLRSEDTAVYYCARTGRYEENAMDYWGQGTLVTVSS
VL: DIVLTQSPASLAVSPGQRATITCRASESVDSYGKSFMHWYQQKPGQPPKLLIYRASNLESGVPARFSGSGSRTDFTLTINPVEANDTANYYCQQNNEDPWTFGQGTKLEIKR
notes: also called humanized anti-TT3 monoclonal antibody
B2: TT3 Ab-3 (antibody, human IgG1, kappa)
heavy: not shown
light: DLVMTQSPASLAVSPGQRATITCRASESVDSYGKSFMHWYQLKPGQPPKLLIYRASNLESGVPARFSGSGSRTDFTLTINPVEANDTANYYCQQNNEDPWTFGQGTKLEIKRTVAAPSVFIFPPSDEQLKSGTASVVCLLNNFYPREAKVQWKVDNALQSGNSQESVTEQDSKDSTYSLSSTLTLSKADYEKHKVYACEVTHQGLSSPVTKSFNRGEC
notes: as for B1

Assays:
[1] = molecular target: TT3 antigen (ELISA coating antigen); assay: ELISA, plate-coated TT3 antigen
Method: The activity of the prepared humanized antibodies was assessed by ELISA as follows: The TT3 antigen was diluted to 0.5 g/mL using a coating solution and added to a 96-well plate at 100 L/well, and the plate was incubated overnight at 4° C. The plate was washed with PBST. Then 200 μL of an antibody blocking solution was added to each well, and blocking was performed at 37° C. for 2 h. The plate was washed with PBST. Different antibodies (initial concentration: 100 nM; serially diluted in a 1:6 ratio) were added at 100 L/well, and the plate was incubated at 37° C. for 2 h. The plate was washed with PBST. An HRP-bound goat anti-human/mouse IgG antibody was added at 100 μL/well, and the plate was incubated at 37° C. for 1 h. The plate was washed with PBST, and TMB was added at 100 L/well. Color development was performed at 37° C. for 10-20 min, and 50 µL of 2 M sulfuric acid was added to each well to stop the reaction. OD readings were taken at a wavelength of 450 nm.

[2] = molecular target: TT3 labeling polypeptide on cells; assay: flow cytometry on HCT116-TT3 cells
[3] = molecular target: TT3 labeling polypeptide on cells; assay: flow cytometry on MC38-TT3 cells
[4] = molecular target: TT3 labeling polypeptide on cells; assay: flow cytometry on SK-HEP-1-TT3 cells

Sequence of TT3 labeling polypeptide on cells (P01732 other isoform, or with tags, fused parts or gaps limits assumed): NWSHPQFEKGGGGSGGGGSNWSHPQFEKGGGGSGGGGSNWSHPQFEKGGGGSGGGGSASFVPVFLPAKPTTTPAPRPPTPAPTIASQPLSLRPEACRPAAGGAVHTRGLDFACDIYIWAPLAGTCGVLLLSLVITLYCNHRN

Binder | EC50 [1] [nM] | EC50 [2] [nM] | EC50 [3] [nM] | EC50 [4] [nM]
B1 | 0.0104 | 0.568 | 1.2 | 0.546
B2 | 0.014 | 0.692 | 0.588 | 0.738
